From the supplement of paper PMC9112550, “Optimization of the antimicrobial peptide Bac7 by deep mutational scanning” (BMC Biology, 2022)

The sequences below were run on Escherichia coli TOP10 (assay: shrunken log2 fold change of peptide-encoding DNA abundance (4.5 h post-induction vs induction); higher = less antimicrobial activity (less host growth inhibition)). Conditions: time post-induction: 4.5 h; library: site-saturation at positions 5, 18, 19, 20.
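Further: peptides expressed intracellularly from a pBAD plasmid library in pooled LB shake-flask culture, induced with 0.3% L-arabinose, DNA abundance read by NGS, three biological replicates, DESeq2 with apeglm shrinkage.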

Row | Sequence | shrunken log2 fold change
1 | RRIRVRPPRLPRPRPRPIPPPRP | -0.2
2 | RRIRVRPPRLPRPRPRPMDRPRP | -0.308
3 | RRIRGRPPRLPRPRPRPRIFPRP | 0.804
4 | RRIRSRPPRLPRPRPRPLDSPRP | -0.0139
5 | RRIRARPPRLPRPRPRPDIVPRP | 0.244
6 | RRIRGRPPRLPRPRPRPKDYPRP | -0.00224
7 | RRIRMRPPRLPRPRPRPLYRPRP | -0.0998
8 | RRIRMRPPRLPRPRPRPRYIPRP | -0.31
9 | RRIRRRPPRLPRPRPRPNIRPRP | -0.144
10 | RRIRYRPPRLPRPRPRPPLVPRP | 0.174
11 | RRIRMRPPRLPRPRPRPVLPPRP | -0.0643
12 | RRIRFRPPRLPRPRPRPYCWPRP | -0.652
13 | RRIRDRPPRLPRPRPRPFQKPRP | 0.158
14 | RRIRPRPPRLPRPRPRPFVEPRP | -0.0706
15 | RRIRLRPPRLPRPRPRPPPGPRP | 1.29
16 | RRIRLRPPRLPRPRPRPFMSPRP | -1.39
17 | RRIRARPPRLPRPRPRPKEMPRP | 0.324
18 | RRIRPRPPRLPRPRPRPWKFPRP | -0.0127
19 | RRIRRRPPRLPRPRPRPQFVPRP | 0.153
20 | RRIRRRPPRLPRPRPRPLTVPRP | 0.0344
21 | RRIRTRPPRLPRPRPRPMWMPRP | -0.177
22 | RRIRFRPPRLPRPRPRPMSHPRP | 0.00661
23 | RRIRCRPPRLPRPRPRPWNIPRP | 0.0152
24 | RRIRPRPPRLPRPRPRPKDAPRP | 0.164
25 | RRIRHRPPRLPRPRPRPRYSPRP | -0.234

Row | Sequence | shrunken log2 fold change
26 | RRIRTRPPRLPRPRPRPHDWPRP | 0.213
27 | RRIRVRPPRLPRPRPRPKGDPRP | 0.275
28 | RRIRLRPPRLPRPRPRPFVCPRP | -0.0489
29 | RRIRLRPPRLPRPRPRPSPKPRP | 0.0205
30 | RRIRKRPPRLPRPRPRPNERPRP | -0.0286
31 | RRIRNRPPRLPRPRPRPVAMPRP | -0.198
32 | RRIRPRPPRLPRPRPRPAAVPRP | 0.41
33 | RRIRERPPRLPRPRPRPINVPRP | 0.017
34 | RRIRQRPPRLPRPRPRPFPQPRP | -0.0621
35 | RRIRLRPPRLPRPRPRPATRPRP | 0.145
36 | RRIRPRPPRLPRPRPRPRVMPRP | 0.327
37 | RRIRKRPPRLPRPRPRPPSIPRP | 0.0697
38 | RRIRMRPPRLPRPRPRPLQFPRP | 0.388
39 | RRIRDRPPRLPRPRPRPQTWPRP | -0.109
40 | RRIRSRPPRLPRPRPRPLFNPRP | -0.632
41 | RRIRQRPPRLPRPRPRPPVYPRP | -0.0643
42 | RRIRKRPPRLPRPRPRPNDQPRP | -0.101
43 | RRIRTRPPRLPRPRPRPCRNPRP | -0.533
44 | RRIRERPPRLPRPRPRPWGIPRP | -0.234
45 | RRIRFRPPRLPRPRPRPHWPPRP | 0.251
46 | RRIRHRPPRLPRPRPRPEKAPRP | -0.0238
47 | RRIRLRPPRLPRPRPRPEGYPRP | 0.104
48 | RRIRMRPPRLPRPRPRPFDYPRP | -0.16
49 | RRIRLRPPRLPRPRPRPSARPRP | 0.0346
50 | RRIRVRPPRLPRPRPRPNYFPRP | -0.303

Row | Sequence | shrunken log2 fold change
51 | RRIRTRPPRLPRPRPRPFSAPRP | 0.0716
52 | RRIRRRPPRLPRPRPRPVNYPRP | -0.291
53 | RRIRPRPPRLPRPRPRPYFAPRP | -0.0984
54 | RRIRDRPPRLPRPRPRPRDKPRP | -0.0712
55 | RRIRPRPPRLPRPRPRPKGVPRP | 0.000119
56 | RRIRNRPPRLPRPRPRPIWQPRP | 0.0123
57 | RRIRHRPPRLPRPRPRPQGSPRP | -0.109
58 | RRIRIRPPRLPRPRPRPFVSPRP | -0.571
59 | RRIRWRPPRLPRPRPRPFHMPRP | -0.138
60 | RRIRVRPPRLPRPRPRPHNEPRP | -0.811
61 | RRIRGRPPRLPRPRPRPVYKPRP | 0.0688
62 | RRIRKRPPRLPRPRPRPLCRPRP | 0.392
63 | RRIRTRPPRLPRPRPRPAGQPRP | -0.109
64 | RRIRWRPPRLPRPRPRPFVNPRP | -0.483
65 | RRIRARPPRLPRPRPRPCINPRP | -0.353
66 | RRIRLRPPRLPRPRPRPETFPRP | 0.0211
67 | RRIRWRPPRLPRPRPRPKRLPRP | 2.54
68 | RRIRQRPPRLPRPRPRPVTIPRP | -0.0898
69 | RRIRTRPPRLPRPRPRPIVSPRP | -0.0631
70 | RRIRKRPPRLPRPRPRPVDTPRP | 0.0388
71 | RRIRFRPPRLPRPRPRPEKRPRP | -0.0774
72 | RRIRMRPPRLPRPRPRPWMYPRP | -0.0417
73 | RRIRWRPPRLPRPRPRPLLSPRP | 0.148
74 | RRIRMRPPRLPRPRPRPYWPPRP | -0.311
75 | RRIRVRPPRLPRPRPRPGIAPRP | 0.0106
